# Reference: patent US20220170056A1, “COMPOSITIONS AND METHODS FOR BIOSYNTHESIS OF […] CANNABINOIDS IN A HE[…]” (INMED PHARMACEUTICALS INC., priority 2019, published 2022)
# B1: IspDF2: novel bifunctional IspD-IspF fusion from soil metagenome fosmid NR0032_O07, 42.1 kDa (protein)
# chain: MQVTAIIAAGGRGRRFGGGVPKQLVGVGGRPILERTVAAFLGHPAIHEVVVALPAELMADPPAYLRAAPKPIRLVAGGVQRQDSVRQAFQAANEQSDVIVIHDAARPFASADLISRTIAAAAEGGAALAAVPARDTVKRGAFAAGRTGPAGRQAVEGAPLLVVAETLPRDSIYLAQTPQAFRRDVLRDALALGEAGSEATDEATLAERAGHIVRLVEGEPANIKITTPDDLLVAFRIGAGYDLHRLVEGRPLVLGGVTIPFERGLLGHSDADAICHAVTDAVLGAAAAGDIGRHFPDSDPKWRDWSSIDLLRRASAIVKGRGYAIANVDAVVIAERPKLAPFLDEMRANVAGAIGIAVDAVGIKGKTNEGLGELGRGEAIAVHAVALLHL
# B2: IspEF fusion: non-natural fusion, E. coli IspE linked by flexible linker (FL) to E. coli IspF (protein)
# chain: MRTQWPSPAKLNLFLYITGQRADGYHTLQTLFQFLDYGDTISIELRDDGDIRLLTPVEGVEHEDNLIVRAARLLMKTAADSGRLPTGSGANISIDKRLPMGGGLGGGSSNAATVLVALNHLWQCGLSMDELAEMGLTLGADVPVFVRGHAAFAEGVGEILTPVDPPEKWYLVAHPGVSIPTPVIFKDPELPRNTPKRSIETLLKCEFSNDCEVIARKRFREVDAVLSWLLEYAPSRLTGTGACVFAEFDTESEARQVLEQAPEWLNGFVAKGANLSPLHRAMLSLGGGGSAAAMRIGHGFDVHAFGGEGPIIIGGVRIPYEKGLLAHSDGDVALHALTDALLGAAALGDIGKLFPDTDPAFKGADSRELLREAWRRIQAKGYTLGNVDVTIIAQAPKMLPHIPQMRVFIAEDLGCHMDDVNVKATTTEKLGFTGRGEGIACEAVALLIKATK
# B3: pcaK: MFS aromatic acid antiporter amplified from Pseudomonas putida KT2440 (protein, UniProt Q51955 1-448, looked up)
# 4-hydroxybenzoate transporter …: MNQAQNSVGKSLDVQSFINQQPLSRYQWRVVLLCFLIVFLDGLDTAAMGFIAPALSQEWGIDRASLGPVMSAALIGMVFGALGSGPLADRFGRKGVLVGAVLVFGGFSLASAYATNVDQLLVLRFLTGLGLGAGMPNATTLLSEYTPERLKSLLVTSMFCGFNLGMAGGGFISAKMIPAYGWHSLLVIGGVLPLLLALVLMVWLPESARFLVVRNRGTDKIRKTLSPIAPQVVAEAGSFSVPEQKAVAARSVFAVIFSGTYGLGTMLLWLTYFMGLVIVYLLTSWLPTLMRDSGASMEQAAFIGALFQFGGVLSAVGVGWAMDRYNPHKVIGIFYLLAGVFAYAVGQSLGNITVLATLVLIAGMCVNGAQSAMPSLAARFYPTQGRATGVSWMLGIGRFGAILGAWSGATLLGLGWNFEQVLTALLVPAALATVGVIVKGLVSHADAT
# B4: IspDF3: novel bifunctional IspD-IspF fusion from soil metagenome fosmid NR0037_N05, 40.2 kDa (protein)
# chain: MVHVSAIIAAGGRGERFGGPQPKQLLLLGGVPILKRTVDAFLRGYPFIEVIVALPAEFVANPPDYLDDVIVVEGGARRQDSVANAFRAVAPSAQVVVIHDAARPLVTPSLIERTVDAAVKHGAAIAALRATDTVKRGDASRVIRGTLPRDEIFLAQTPQAFRAGVLRDALALAASAADATDEAMLAEQAGHHVRLVDGDPRNLKITTPEDLEMRIGNGYDLHRLVTGRPLVLGGVTIPFEKGLQGHSDADAVCHAITDAILGAASAGDIGRHFPDTDPAWKDAKSIVLLQQAAQIVSRAGYAIANLDVVVIAQQPKLVPHIDAIRHSVAHALGIDVQQVSVKGKTNEGVDSMGAGESIAVHAVALLQHS
# Columns and labels:
# MEP pathway flux = experiment: Lycopene production (MEP pathway flux) in recombinant E. coli; format: cell-based, E. coli BL21(DE3); conditions: for terpene titer (lycopene and isoprene), in words: IspDF2 and IspDF3 versions of the Dxs-IspDF-Idi chassis, FIG. 18
# Procedure: Both isoprene and lycopene starter cultures were cultivated overnight at 30° C. in LB media (Sigma-Aldrich) containing appropriate antibiotic/s. Isoprene starter cultures were then diluted to 15 mL with the medium to OD600 of 0.2, induced with arabinose and/or IPTG; and allowed to grow for 24 h at 30° C. in 25 mL sealed glass tube. Lycopene starter cultures were diluted to 5 mL with the medium to OD600 of 0.2, induced with IPTG, and allowed to grow for 24 h at 30° C. in culture tubes in the dark.
# Lycopene is an intracellular product. 2 mL of cell culture was centrifuged at 8000 rpm for 5 min and lycopene was extracted by extraction from the pellet with 1 mL acetone. Extraction was performed at 55° C. with intermittent vortexing for 20 min in reduced light condition. The acetone suspension was centrifuged and filtered before analysis. Samples were analyzed on the PerkinElmer Flexar system equipped with Zorbax C-18 column (4.6×250 mm, Agilent Technologies) maintained at 30° C. Samples were run with mobile phase consisting of 66% (v/v) methanol, 30% (v/v) tetrahydrofuran and 4% (v/v) water at 1 mL/min flow rate. Lycopene detection was done by monitoring absorbance at 474 nm wavelength using a photodiode detector.
# E. coli [1] = experiment: CBGA production in E. coli expressing NphB variant and transporter, fed OA; format: cell-based; conditions: cells expressing NphB variant; compared to control cell not expressing a heterologous transporter (FIG. 9)
# Procedure: (§1) The following experimental host cells were tested: (1) E. coli transformed with plasmids encoding arabinose inducible transporters pcaK or pp3656; and (2)) E. coli transformed with plasmids encoding arabinose inducible transporters pcaK or pp3656 and B5 plasmid (encoding ispDF1 enzyme, GPPS, and an optimized variant NphB (see, Valliere et al.).
# (§2) Seed cultures of (1) were inoculated from glycerol stock into 5 mL LB with 34 μg/mL chloramphenicol, incubate at 30° C. overnight. Seed cultures of (2) were inoculated from glycerol stock into 5 mL LB with 34 μg/mL chloramphenicol and 50 μg/mL kanamycin, incubate at 30° C. overnight.
# Induction cultures of (2) were inoculated from seed culture into total culture volume 5 mL TB media with 0.5 mM OA, 5 mM MgCl2, and cultured at 30° C. until OD600 of 0.8. Cultures were induced by adding arabinose to a final concentration of 5 mM arabinose and IPTG to a final concentration of 100 μM. During induction, cultures were incubated at 30° C. Induction culture samples were collected at 24 h and 48 hr time points after the start of induction.
# (§3) Cultures first centrifuged at 3000 rpm for 10 m to separate pellet and culture media supernatant fractions. Pellets also washed with PBS twice. Cell pellets lysed with B-PER Complete Reagent following manufacturer's protocol. […] Samples of the cell lysates were analyzed by SDS-PAGE analysis. […]
# E. coli [2] = experiment: Olivetolate (OA) uptake into E. coli expressing heterologous transporter; format: cell-based; conditions: 24 to 48 hours after induction; compared to BL21 control without additional transporters (FIG. 8)
# Procedure: as §1, §2
# Induction cultures of (1) were inoculated from seed culture into total culture volume 5 mL TB media with 0.1 mM OA and cultured at 30° C. until OD600 of 0.8. Cultures were induced by adding arabinose and magnesium to a final concentration of 5 mM arabinose and 5 mM MgCl2. During induction, cultures were incubated at 30° C. Induction culture samples were collected at 24 h and 48 hr time points after the start of induction.
# as §3
molecule,measurement,setting,value
B1,"terpene titer (lycopene and isoprene), in words",MEP pathway flux,lowered the titer
B2,decrease in lycopene production than SALyc-SDFEI,MEP pathway flux,at least 65%
same,decrease in normalized lycopene titers than SALyc-SDFEI,MEP pathway flux,85%
same,"lycopene production / titers, in words","MEP pathway flux; comparison as stated in the sentence (FIGS. 21, 23, 25)",lowered the lycopene production substantially
B3,production of CBGA,E. coli [1],increased production of CBGA
same,olivetolate uptake inside cells,E. coli [2],increased olivetolate uptake
B4,"terpene titer (lycopene and isoprene), in words",MEP pathway flux,lowered the titer
